In patent US20220332804A1 (CSL INNOVATION, published 2022):

Columns and labels:
Test in all cases: SPR, mAb captured, C2 mutant analyte;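 also: Anti-C2 mAbs captured on goat anti-human IgG Biacore CM5 chips, alanine or serine C2 surface mutants flowed over at 37 °C, double-referenced sensorgrams fitted to a 1:1 binding model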
[1] = target: T1, human C2 D417A (human, UniProt P06681 21-752)
T1 sequence: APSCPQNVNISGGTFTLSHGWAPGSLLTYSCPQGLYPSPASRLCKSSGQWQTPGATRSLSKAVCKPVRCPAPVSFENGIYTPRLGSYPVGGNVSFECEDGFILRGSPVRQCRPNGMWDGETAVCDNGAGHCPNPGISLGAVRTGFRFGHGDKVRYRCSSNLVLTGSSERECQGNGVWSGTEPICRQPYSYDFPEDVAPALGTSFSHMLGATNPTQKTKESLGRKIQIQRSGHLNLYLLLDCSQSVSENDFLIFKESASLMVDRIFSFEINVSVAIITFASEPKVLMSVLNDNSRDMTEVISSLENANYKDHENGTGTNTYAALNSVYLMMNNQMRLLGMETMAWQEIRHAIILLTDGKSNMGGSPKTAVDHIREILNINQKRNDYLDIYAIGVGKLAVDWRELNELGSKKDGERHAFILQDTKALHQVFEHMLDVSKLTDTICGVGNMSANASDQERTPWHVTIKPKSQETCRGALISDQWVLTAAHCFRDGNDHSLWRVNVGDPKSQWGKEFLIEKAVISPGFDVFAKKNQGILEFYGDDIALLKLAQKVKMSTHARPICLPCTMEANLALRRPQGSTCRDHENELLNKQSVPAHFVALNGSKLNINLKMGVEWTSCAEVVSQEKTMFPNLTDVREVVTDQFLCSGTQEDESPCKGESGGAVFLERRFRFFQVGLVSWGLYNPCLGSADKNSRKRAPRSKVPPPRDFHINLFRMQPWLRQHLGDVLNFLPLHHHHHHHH
Protocol: (§1) Surface plasmon resonance (SPR, Biacore) was used for all binding affinity analyses. In brief, goat anti-human IgG was directly immobilised onto the carboxymethyl dextran surface of CM5 sensorchips to approximately 12,000 RU using standard NHS/EDC chemistry at pH 5. The immobilised antibody surface was pre-conditioned with ten injections of polyclonal human IgG (Privigen 60 s) prepared at 1 μg/mL. Ligands (anti-C2 mAbs) were captured at the beginning of each cycle as described below. An adjacent spot or flow cell in which only Polyclonal IgG was capture was used as a reference surface. The goat anti-human IgG Fc antibody surface was regenerate in 100 mM H3PO4, injected for 45 seconds at the end of each cycle. Experiments were performed at 37° C. and the flow rate of each experiment was kept constant at 30 μL/min.
(§2) Sensogram data was double-referenced against a reference anti-IgG surface (i.e. minus anti-C2 mAb) and blank buffer injections obtained within each experiment. The binding data was fit to 1:1 (kinetic or steady-state) model using local Rmax and null refraction index (RI=0) when appropriate. Buffers and solutions were filtered (0.22 μm) prior to use.

[2] = target: T2, human C2 D441A (human, UniProt P06681 21-752)
T2 sequence: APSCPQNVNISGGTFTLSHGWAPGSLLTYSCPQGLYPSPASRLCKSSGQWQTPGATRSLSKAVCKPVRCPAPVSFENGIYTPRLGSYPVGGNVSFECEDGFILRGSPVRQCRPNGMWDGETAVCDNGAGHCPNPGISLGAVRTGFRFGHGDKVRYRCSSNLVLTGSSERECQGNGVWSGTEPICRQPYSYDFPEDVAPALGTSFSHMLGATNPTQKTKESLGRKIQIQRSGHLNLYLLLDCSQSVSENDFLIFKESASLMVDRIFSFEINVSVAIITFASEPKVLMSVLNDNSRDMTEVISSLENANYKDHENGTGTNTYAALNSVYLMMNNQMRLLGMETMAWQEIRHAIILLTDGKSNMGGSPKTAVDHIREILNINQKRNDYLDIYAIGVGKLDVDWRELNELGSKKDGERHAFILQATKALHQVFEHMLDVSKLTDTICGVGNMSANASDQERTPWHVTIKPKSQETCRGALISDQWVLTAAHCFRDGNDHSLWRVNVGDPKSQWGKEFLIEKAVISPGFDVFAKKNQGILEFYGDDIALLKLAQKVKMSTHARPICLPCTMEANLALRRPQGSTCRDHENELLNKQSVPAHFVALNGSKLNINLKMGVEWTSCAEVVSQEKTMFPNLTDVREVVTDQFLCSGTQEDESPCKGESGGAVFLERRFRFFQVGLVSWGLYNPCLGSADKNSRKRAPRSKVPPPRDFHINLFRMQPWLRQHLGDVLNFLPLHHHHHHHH
Protocol: as §1, §2

[3] = target: T3, human C2 Q447A (human, UniProt P06681 21-752)
T3 sequence: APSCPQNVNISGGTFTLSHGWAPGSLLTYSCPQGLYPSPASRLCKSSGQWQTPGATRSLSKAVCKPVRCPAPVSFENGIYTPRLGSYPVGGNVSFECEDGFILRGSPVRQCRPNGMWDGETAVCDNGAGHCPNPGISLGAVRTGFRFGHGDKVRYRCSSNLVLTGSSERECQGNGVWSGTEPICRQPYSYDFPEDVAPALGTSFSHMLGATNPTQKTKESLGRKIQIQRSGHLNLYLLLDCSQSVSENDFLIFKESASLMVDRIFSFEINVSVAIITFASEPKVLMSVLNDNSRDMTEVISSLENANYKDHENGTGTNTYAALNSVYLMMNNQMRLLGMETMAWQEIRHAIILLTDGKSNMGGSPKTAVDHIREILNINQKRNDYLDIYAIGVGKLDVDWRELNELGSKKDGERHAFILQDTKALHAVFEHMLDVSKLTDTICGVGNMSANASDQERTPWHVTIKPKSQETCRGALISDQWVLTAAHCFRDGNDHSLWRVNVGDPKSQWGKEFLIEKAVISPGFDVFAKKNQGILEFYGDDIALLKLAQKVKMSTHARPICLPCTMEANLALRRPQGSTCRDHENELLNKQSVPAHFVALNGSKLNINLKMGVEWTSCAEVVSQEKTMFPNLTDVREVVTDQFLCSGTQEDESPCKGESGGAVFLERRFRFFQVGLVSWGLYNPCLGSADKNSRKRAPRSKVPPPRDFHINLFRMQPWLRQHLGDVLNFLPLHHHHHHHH
Protocol: as §1, §2

[4] = target: T4, human C2 V455A (human, UniProt P06681 21-752)
T4 sequence: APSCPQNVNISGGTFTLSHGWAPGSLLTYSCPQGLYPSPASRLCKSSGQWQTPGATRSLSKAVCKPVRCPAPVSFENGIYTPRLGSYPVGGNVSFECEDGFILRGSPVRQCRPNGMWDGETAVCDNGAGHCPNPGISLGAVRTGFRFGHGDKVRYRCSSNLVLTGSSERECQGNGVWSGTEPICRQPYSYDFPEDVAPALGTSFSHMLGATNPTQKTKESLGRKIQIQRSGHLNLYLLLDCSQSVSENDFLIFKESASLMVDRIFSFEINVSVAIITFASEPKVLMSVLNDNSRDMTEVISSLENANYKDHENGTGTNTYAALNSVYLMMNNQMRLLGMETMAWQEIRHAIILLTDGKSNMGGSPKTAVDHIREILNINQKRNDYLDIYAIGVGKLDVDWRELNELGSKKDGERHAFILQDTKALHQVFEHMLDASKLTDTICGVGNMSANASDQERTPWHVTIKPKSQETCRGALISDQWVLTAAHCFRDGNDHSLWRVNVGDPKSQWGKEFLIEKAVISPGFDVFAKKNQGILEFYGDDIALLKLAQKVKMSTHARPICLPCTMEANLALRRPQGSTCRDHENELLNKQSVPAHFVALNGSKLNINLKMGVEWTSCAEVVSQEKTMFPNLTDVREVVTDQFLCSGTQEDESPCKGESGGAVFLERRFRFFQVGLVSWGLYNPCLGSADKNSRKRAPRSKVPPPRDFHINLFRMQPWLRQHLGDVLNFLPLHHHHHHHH
Protocol: as §1, §2

B1: RF16-214 (antibody, V domains shown)
VH: EVQLLESGGGLVQPGGSLRLSCAASGFTFSWYQMMWVRQAPGKGLEWVSRIYPSGGGTAYADSVKGRFTISRDNSKNTLYLQMNSLRAEDTAVYYCARDAGYGDNWGQGTLVTVSS
VL: QSALTQPPSVSVSPGQTASITCSGDKLGEKYASWYQQKAGQSPVMVIYQDRKRPSGIPERFSGSNSGNTATLTISGTQAMDEADYYCQAWDTRAVVFGGGTKLTVLG
Kd [1]: 56.4 nM | Kd [2]: 51.5 nM | Kd [3]: 133 nM | Kd [4]: 9.8 nM
